Measurements from EP4692114A1, “CALCITONIN ANALOGUE, AND DERIVATIVE THEREOF AND USE THEREOF” (Hangzhou Sciwind Biosciences Co., Ltd., priority 2023, dated 2024).
One block for each binder: values may come before it. *1 amine or outer side, *2 acyl side, *3 side chain or, on linkers, in order; H or OH if unused. The star is where a group is joined. C22 diacid = O=C(O)CCCCCCCCCCCCCCCCCCCCC(=O)*; C20 diacid = O=C(O)CCCCCCCCCCCCCCCCCCC(=O)*; γGlu = O=C(O)[C@H](CCC(=O)[*:2])N[*:1]

Target: T1, human amylin receptor (AMY3) on CHO-K1/Gal5/AMY3 cells (human, UniProt P30988 25-474; O60896 24-148)
T1 sequence (looked up) 1: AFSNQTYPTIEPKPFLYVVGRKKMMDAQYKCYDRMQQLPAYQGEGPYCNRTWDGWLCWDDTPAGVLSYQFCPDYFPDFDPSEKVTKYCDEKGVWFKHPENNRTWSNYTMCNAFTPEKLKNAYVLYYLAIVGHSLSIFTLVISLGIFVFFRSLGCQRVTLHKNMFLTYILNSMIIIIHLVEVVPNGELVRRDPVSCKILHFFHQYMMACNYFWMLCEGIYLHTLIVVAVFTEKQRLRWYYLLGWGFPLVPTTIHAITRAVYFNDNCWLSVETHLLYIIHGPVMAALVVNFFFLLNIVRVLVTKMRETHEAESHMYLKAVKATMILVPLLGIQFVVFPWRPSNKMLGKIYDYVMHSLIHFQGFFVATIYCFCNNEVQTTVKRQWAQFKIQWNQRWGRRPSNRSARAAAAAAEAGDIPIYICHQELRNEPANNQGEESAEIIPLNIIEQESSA
T1 sequence (looked up) 2: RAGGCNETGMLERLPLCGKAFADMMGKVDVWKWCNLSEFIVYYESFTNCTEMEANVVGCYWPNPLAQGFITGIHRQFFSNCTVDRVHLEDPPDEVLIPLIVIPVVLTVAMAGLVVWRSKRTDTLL
Test: cell-based or functional assay

- EC50/nM, CRE-luciferase in amylin receptor/CRE-luc CHO cells: 0.058 nM
B1: calcitonin derivative M34 (peptide)
peptide: {C20 diacid-γGlu}-ASELSTAVLGRLSEELHRLEDYPRTDVGSGSP-NH2
SMILES: CC(C)C[C@H](NC(=O)[C@H](CCCNC(=N)N)NC(=O)CNC(=O)[C@H](CC(C)C)NC(=O)[C@@H](NC(=O)[C@H](C)NC(=O)[C@@H](NC(=O)[C@H](CO)NC(=O)[C@H](CC(C)C)NC(=O)[C@H](CCC(=O)O)NC(=O)[C@H](CO)NC(=O)[C@H](C)NC(=O)CC[C@H](NC(=O)CCCCCCCCCCCCCCCCCCC(=O)O)C(=O)O)[C@@H](C)O)C(C)C)C(=O)N[C@@H](CO)C(=O)N[C@@H](CCC(=O)O)C(=O)N[C@@H](CCC(=O)O)C(=O)N[C@@H](CC(C)C)C(=O)N[C@@H](Cc1c[nH]cn1)C(=O)N[C@@H](CCCNC(=N)N)C(=O)N[C@@H](CC(C)C)C(=O)N[C@@H](CCC(=O)O)C(=O)N[C@@H](CC(=O)O)C(=O)N[C@@H](Cc1ccc(O)cc1)C(=O)N1CCC[C@H]1C(=O)N[C@@H](CCCNC(=N)N)C(=O)N[C@H](C(=O)N[C@@H](CC(=O)O)C(=O)N[C@H](C(=O)NCC(=O)N[C@@H](CO)C(=O)NCC(=O)N[C@@H](CO)C(=O)N1CCC[C@H]1C(N)=O)C(C)C)[C@@H](C)O

- EC50/nM, CRE-luciferase in amylin receptor/CRE-luc CHO cells: 0.03 nM
B2: calcitonin derivative M32 (peptide)
peptide: {C20 diacid-γGlu}-RSQLSTEVLGRLSQELHRLQDYPRTDVGSGSP-NH2
SMILES: CC(C)C[C@H](NC(=O)[C@H](CCCNC(=N)N)NC(=O)CNC(=O)[C@H](CC(C)C)NC(=O)[C@@H](NC(=O)[C@H](CCC(=O)O)NC(=O)[C@@H](NC(=O)[C@H](CO)NC(=O)[C@H](CC(C)C)NC(=O)[C@H](CCC(N)=O)NC(=O)[C@H](CO)NC(=O)[C@H](CCCNC(=N)N)NC(=O)CC[C@H](NC(=O)CCCCCCCCCCCCCCCCCCC(=O)O)C(=O)O)[C@@H](C)O)C(C)C)C(=O)N[C@@H](CO)C(=O)N[C@@H](CCC(N)=O)C(=O)N[C@@H](CCC(=O)O)C(=O)N[C@@H](CC(C)C)C(=O)N[C@@H](Cc1c[nH]cn1)C(=O)N[C@@H](CCCNC(=N)N)C(=O)N[C@@H](CC(C)C)C(=O)N[C@@H](CCC(N)=O)C(=O)N[C@@H](CC(=O)O)C(=O)N[C@@H](Cc1ccc(O)cc1)C(=O)N1CCC[C@H]1C(=O)N[C@@H](CCCNC(=N)N)C(=O)N[C@H](C(=O)N[C@@H](CC(=O)O)C(=O)N[C@H](C(=O)NCC(=O)N[C@@H](CO)C(=O)NCC(=O)N[C@@H](CO)C(=O)N1CCC[C@H]1C(N)=O)C(C)C)[C@@H](C)O

- EC50/nM, CRE-luciferase in amylin receptor/CRE-luc CHO cells: 0.042 nM
B3: calcitonin derivative M17 (peptide)
peptide: {C20 diacid-γGlu}-ASQLSTAVLGRLSQELHRLQDYPRTQSGSGSP-NH2
SMILES: CC(C)C[C@H](NC(=O)[C@H](CCCNC(=N)N)NC(=O)CNC(=O)[C@H](CC(C)C)NC(=O)[C@@H](NC(=O)[C@H](C)NC(=O)[C@@H](NC(=O)[C@H](CO)NC(=O)[C@H](CC(C)C)NC(=O)[C@H](CCC(N)=O)NC(=O)[C@H](CO)NC(=O)[C@H](C)NC(=O)CC[C@H](NC(=O)CCCCCCCCCCCCCCCCCCC(=O)O)C(=O)O)[C@@H](C)O)C(C)C)C(=O)N[C@@H](CO)C(=O)N[C@@H](CCC(N)=O)C(=O)N[C@@H](CCC(=O)O)C(=O)N[C@@H](CC(C)C)C(=O)N[C@@H](Cc1c[nH]cn1)C(=O)N[C@@H](CCCNC(=N)N)C(=O)N[C@@H](CC(C)C)C(=O)N[C@@H](CCC(N)=O)C(=O)N[C@@H](CC(=O)O)C(=O)N[C@@H](Cc1ccc(O)cc1)C(=O)N1CCC[C@H]1C(=O)N[C@@H](CCCNC(=N)N)C(=O)N[C@H](C(=O)N[C@@H](CCC(N)=O)C(=O)N[C@@H](CO)C(=O)NCC(=O)N[C@@H](CO)C(=O)NCC(=O)N[C@@H](CO)C(=O)N1CCC[C@H]1C(N)=O)[C@@H](C)O

- EC50/nM, CRE-luciferase in amylin receptor/CRE-luc CHO cells: 0.017 nM
B4: calcitonin derivative M65 (peptide)
peptide: {C22 diacid-γGlu}-ASQLSTAVLGRLSEELHRLQDYPRTDVGSGSP-NH2
SMILES: CC(C)C[C@H](NC(=O)[C@H](CCCNC(=N)N)NC(=O)CNC(=O)[C@H](CC(C)C)NC(=O)[C@@H](NC(=O)[C@H](C)NC(=O)[C@@H](NC(=O)[C@H](CO)NC(=O)[C@H](CC(C)C)NC(=O)[C@H](CCC(N)=O)NC(=O)[C@H](CO)NC(=O)[C@H](C)NC(=O)CC[C@H](NC(=O)CCCCCCCCCCCCCCCCCCCCC(=O)O)C(=O)O)[C@@H](C)O)C(C)C)C(=O)N[C@@H](CO)C(=O)N[C@@H](CCC(=O)O)C(=O)N[C@@H](CCC(=O)O)C(=O)N[C@@H](CC(C)C)C(=O)N[C@@H](Cc1c[nH]cn1)C(=O)N[C@@H](CCCNC(=N)N)C(=O)N[C@@H](CC(C)C)C(=O)N[C@@H](CCC(N)=O)C(=O)N[C@@H](CC(=O)O)C(=O)N[C@@H](Cc1ccc(O)cc1)C(=O)N1CCC[C@H]1C(=O)N[C@@H](CCCNC(=N)N)C(=O)N[C@H](C(=O)N[C@@H](CC(=O)O)C(=O)N[C@H](C(=O)NCC(=O)N[C@@H](CO)C(=O)NCC(=O)N[C@@H](CO)C(=O)N1CCC[C@H]1C(N)=O)C(C)C)[C@@H](C)O

- EC50/nM, CRE-luciferase in amylin receptor/CRE-luc CHO cells: 0.075 nM
B5: calcitonin derivative M49 (peptide)
peptide: {C20 diacid-γGlu}-ASQLSTAVLGRLSQELHRLQDFPRTDVGSGSP-NH2
SMILES: CC(C)C[C@H](NC(=O)[C@H](CCCNC(=N)N)NC(=O)CNC(=O)[C@H](CC(C)C)NC(=O)[C@@H](NC(=O)[C@H](C)NC(=O)[C@@H](NC(=O)[C@H](CO)NC(=O)[C@H](CC(C)C)NC(=O)[C@H](CCC(N)=O)NC(=O)[C@H](CO)NC(=O)[C@H](C)NC(=O)CC[C@H](NC(=O)CCCCCCCCCCCCCCCCCCC(=O)O)C(=O)O)[C@@H](C)O)C(C)C)C(=O)N[C@@H](CO)C(=O)N[C@@H](CCC(N)=O)C(=O)N[C@@H](CCC(=O)O)C(=O)N[C@@H](CC(C)C)C(=O)N[C@@H](Cc1c[nH]cn1)C(=O)N[C@@H](CCCNC(=N)N)C(=O)N[C@@H](CC(C)C)C(=O)N[C@@H](CCC(N)=O)C(=O)N[C@@H](CC(=O)O)C(=O)N[C@@H](Cc1ccccc1)C(=O)N1CCC[C@H]1C(=O)N[C@@H](CCCNC(=N)N)C(=O)N[C@H](C(=O)N[C@@H](CC(=O)O)C(=O)N[C@H](C(=O)NCC(=O)N[C@@H](CO)C(=O)NCC(=O)N[C@@H](CO)C(=O)N1CCC[C@H]1C(N)=O)C(C)C)[C@@H](C)O

- EC50/nM, CRE-luciferase in amylin receptor/CRE-luc CHO cells: 0.025 nM
B6: calcitonin derivative M16 (peptide)
peptide: {C20 diacid-γGlu}-ASQLSTAVLGRLSQELHRLQDYPRTDSGSGSP-NH2
SMILES: CC(C)C[C@H](NC(=O)[C@H](CCCNC(=N)N)NC(=O)CNC(=O)[C@H](CC(C)C)NC(=O)[C@@H](NC(=O)[C@H](C)NC(=O)[C@@H](NC(=O)[C@H](CO)NC(=O)[C@H](CC(C)C)NC(=O)[C@H](CCC(N)=O)NC(=O)[C@H](CO)NC(=O)[C@H](C)NC(=O)CC[C@H](NC(=O)CCCCCCCCCCCCCCCCCCC(=O)O)C(=O)O)[C@@H](C)O)C(C)C)C(=O)N[C@@H](CO)C(=O)N[C@@H](CCC(N)=O)C(=O)N[C@@H](CCC(=O)O)C(=O)N[C@@H](CC(C)C)C(=O)N[C@@H](Cc1c[nH]cn1)C(=O)N[C@@H](CCCNC(=N)N)C(=O)N[C@@H](CC(C)C)C(=O)N[C@@H](CCC(N)=O)C(=O)N[C@@H](CC(=O)O)C(=O)N[C@@H](Cc1ccc(O)cc1)C(=O)N1CCC[C@H]1C(=O)N[C@@H](CCCNC(=N)N)C(=O)N[C@H](C(=O)N[C@@H](CC(=O)O)C(=O)N[C@@H](CO)C(=O)NCC(=O)N[C@@H](CO)C(=O)NCC(=O)N[C@@H](CO)C(=O)N1CCC[C@H]1C(N)=O)[C@@H](C)O
